These are literature values, as cited in paper PMC7600996.

The data set has as its target RseA (Escherichia coli) (UniProt P0AFX7).
Chain of UniProt P0AFX7 (P0AFX7 whole entry): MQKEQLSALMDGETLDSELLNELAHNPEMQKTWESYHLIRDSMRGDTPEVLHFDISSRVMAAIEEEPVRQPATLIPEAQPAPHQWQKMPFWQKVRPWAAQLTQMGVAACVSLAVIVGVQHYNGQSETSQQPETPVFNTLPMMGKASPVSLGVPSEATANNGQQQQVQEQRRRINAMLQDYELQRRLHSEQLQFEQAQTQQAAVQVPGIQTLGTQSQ

Usually Kd stands for the constant that tells how readily two partners part at equilibrium. For RpoE (sigma E) (from UniProt P0AGB6), the dissociation constant (Kd) is 0.2 nM.
